This data set concerns the molecule itself. Nature of the data set: SEC; Superose 6 Increase 10/300 GL, 4 °C; MalT pre-incubated at 20 °C for 20 min in buffer I; run in buffer E with 1 mM maltotriose and 0.4 mM ATP; self-association of MalT.

B1: MalT-E140A, N-terminally His-tagged (natural protein, Escherichia coli, UniProt P06993 1-901, looked up)
chain: MLIPSKLSRPVRLDHTVVRERLLAKLSGANNFRLALITSPAGYGKTTLISQWAAGKNDIGWYSLDEGDNQQERFASYLIAAVQQATNGHCAICETMAQKRQYASLTSLFAQLFIELAEWHSPLYLVIDDYHLITNPVIHASMRFFIRHQPENLTLVVLSRNLPQLGIANLRVRDQLLEIGSQQLAFTHQEAKQFFDCRLSSPIEAAESSRICDDVSGWATALQLIALSARQNTHSAHKSARRLAGINASHLSDYLVDEVLDNVDLATRHFLLKSAILRSMNDALITRVTGEENGQMRLEEIERQGLFLQRMDDTGEWFCYHPLFGNFLRQRCQWELAAELPEIHRAAAESWMAQGFPSEAIHHALAAGDALMLRDILLNHAWSLFNHSELSLLEESLKALPWDSLLENPQLVLLQAWLMQSQHRYGEVNTLLARAEHEIKDIREDTMHAEFNALRAQVAINDGNPDEAERLAKLALEELPPGWFYSRIVATSVLGEVLHCKGELTRSLALMQQTEQMARQHDVWHYALWSLIQQSEILFAQGFLQTAWETQEKAFQLINEQHLEQLPMHEFLVRIRAQLLWAWARLDEAEASARSGIEVLSSYQPQQQLQCLAMLIQCSLARGDLDNARSQLNRLENLLGNGKYHSDWISNANKVRVIYWQMTGDKAAAANWLRHTAKPEFANNHFLQGQWRNIARAQILLGEFEPAEIVLEELNENARSLRLMSDLNRNLLLLNQLYWQAGRKSDAQRVLLDALKLANRTGFISHFVIEGEAMAQQLRQLIQLNTLPELEQHRAQRILREINQHHRHKFAHFDENFVERLLNHPEVPELIRTSPLTQREWQVLGLIYSGYSNEQIAGELEVAATTIKTHIRNLYQKLGVAHRQDAVQHAQQLLKMMGYGV
notes: MalT of Escherichia coli, variant of plasmid pOM206 made by site-directed mutagenesis; source: E. coli BL21 (DE3) ΔmalT220, purified (Ni Sepharose, gel filtration)
B1: the binding result is “binds”.

B2: MalT-N169A, N-terminally His-tagged (natural protein, Escherichia coli, UniProt P06993 1-901, looked up)
chain: MLIPSKLSRPVRLDHTVVRERLLAKLSGANNFRLALITSPAGYGKTTLISQWAAGKNDIGWYSLDEGDNQQERFASYLIAAVQQATNGHCAICETMAQKRQYASLTSLFAQLFIELAEWHSPLYLVIDDYHLITNPVIHESMRFFIRHQPENLTLVVLSRNLPQLGIAALRVRDQLLEIGSQQLAFTHQEAKQFFDCRLSSPIEAAESSRICDDVSGWATALQLIALSARQNTHSAHKSARRLAGINASHLSDYLVDEVLDNVDLATRHFLLKSAILRSMNDALITRVTGEENGQMRLEEIERQGLFLQRMDDTGEWFCYHPLFGNFLRQRCQWELAAELPEIHRAAAESWMAQGFPSEAIHHALAAGDALMLRDILLNHAWSLFNHSELSLLEESLKALPWDSLLENPQLVLLQAWLMQSQHRYGEVNTLLARAEHEIKDIREDTMHAEFNALRAQVAINDGNPDEAERLAKLALEELPPGWFYSRIVATSVLGEVLHCKGELTRSLALMQQTEQMARQHDVWHYALWSLIQQSEILFAQGFLQTAWETQEKAFQLINEQHLEQLPMHEFLVRIRAQLLWAWARLDEAEASARSGIEVLSSYQPQQQLQCLAMLIQCSLARGDLDNARSQLNRLENLLGNGKYHSDWISNANKVRVIYWQMTGDKAAAANWLRHTAKPEFANNHFLQGQWRNIARAQILLGEFEPAEIVLEELNENARSLRLMSDLNRNLLLLNQLYWQAGRKSDAQRVLLDALKLANRTGFISHFVIEGEAMAQQLRQLIQLNTLPELEQHRAQRILREINQHHRHKFAHFDENFVERLLNHPEVPELIRTSPLTQREWQVLGLIYSGYSNEQIAGELEVAATTIKTHIRNLYQKLGVAHRQDAVQHAQQLLKMMGYGV
notes: as for B1
In the case of B2, the binding result is reported as “binds”.

B3: MalT-R173A, N-terminally His-tagged (natural protein, Escherichia coli, UniProt P06993 1-901, looked up)
chain: MLIPSKLSRPVRLDHTVVRERLLAKLSGANNFRLALITSPAGYGKTTLISQWAAGKNDIGWYSLDEGDNQQERFASYLIAAVQQATNGHCAICETMAQKRQYASLTSLFAQLFIELAEWHSPLYLVIDDYHLITNPVIHESMRFFIRHQPENLTLVVLSRNLPQLGIANLRVADQLLEIGSQQLAFTHQEAKQFFDCRLSSPIEAAESSRICDDVSGWATALQLIALSARQNTHSAHKSARRLAGINASHLSDYLVDEVLDNVDLATRHFLLKSAILRSMNDALITRVTGEENGQMRLEEIERQGLFLQRMDDTGEWFCYHPLFGNFLRQRCQWELAAELPEIHRAAAESWMAQGFPSEAIHHALAAGDALMLRDILLNHAWSLFNHSELSLLEESLKALPWDSLLENPQLVLLQAWLMQSQHRYGEVNTLLARAEHEIKDIREDTMHAEFNALRAQVAINDGNPDEAERLAKLALEELPPGWFYSRIVATSVLGEVLHCKGELTRSLALMQQTEQMARQHDVWHYALWSLIQQSEILFAQGFLQTAWETQEKAFQLINEQHLEQLPMHEFLVRIRAQLLWAWARLDEAEASARSGIEVLSSYQPQQQLQCLAMLIQCSLARGDLDNARSQLNRLENLLGNGKYHSDWISNANKVRVIYWQMTGDKAAAANWLRHTAKPEFANNHFLQGQWRNIARAQILLGEFEPAEIVLEELNENARSLRLMSDLNRNLLLLNQLYWQAGRKSDAQRVLLDALKLANRTGFISHFVIEGEAMAQQLRQLIQLNTLPELEQHRAQRILREINQHHRHKFAHFDENFVERLLNHPEVPELIRTSPLTQREWQVLGLIYSGYSNEQIAGELEVAATTIKTHIRNLYQKLGVAHRQDAVQHAQQLLKMMGYGV
notes: as for B1
As to B3, the binding result is recorded as “binds”.

B4: MalT-R143A, N-terminally His-tagged (natural protein, Escherichia coli, UniProt P06993 1-901, looked up)
chain: MLIPSKLSRPVRLDHTVVRERLLAKLSGANNFRLALITSPAGYGKTTLISQWAAGKNDIGWYSLDEGDNQQERFASYLIAAVQQATNGHCAICETMAQKRQYASLTSLFAQLFIELAEWHSPLYLVIDDYHLITNPVIHESMAFFIRHQPENLTLVVLSRNLPQLGIANLRVRDQLLEIGSQQLAFTHQEAKQFFDCRLSSPIEAAESSRICDDVSGWATALQLIALSARQNTHSAHKSARRLAGINASHLSDYLVDEVLDNVDLATRHFLLKSAILRSMNDALITRVTGEENGQMRLEEIERQGLFLQRMDDTGEWFCYHPLFGNFLRQRCQWELAAELPEIHRAAAESWMAQGFPSEAIHHALAAGDALMLRDILLNHAWSLFNHSELSLLEESLKALPWDSLLENPQLVLLQAWLMQSQHRYGEVNTLLARAEHEIKDIREDTMHAEFNALRAQVAINDGNPDEAERLAKLALEELPPGWFYSRIVATSVLGEVLHCKGELTRSLALMQQTEQMARQHDVWHYALWSLIQQSEILFAQGFLQTAWETQEKAFQLINEQHLEQLPMHEFLVRIRAQLLWAWARLDEAEASARSGIEVLSSYQPQQQLQCLAMLIQCSLARGDLDNARSQLNRLENLLGNGKYHSDWISNANKVRVIYWQMTGDKAAAANWLRHTAKPEFANNHFLQGQWRNIARAQILLGEFEPAEIVLEELNENARSLRLMSDLNRNLLLLNQLYWQAGRKSDAQRVLLDALKLANRTGFISHFVIEGEAMAQQLRQLIQLNTLPELEQHRAQRILREINQHHRHKFAHFDENFVERLLNHPEVPELIRTSPLTQREWQVLGLIYSGYSNEQIAGELEVAATTIKTHIRNLYQKLGVAHRQDAVQHAQQLLKMMGYGV
notes: as for B1
Consider B4, for which the binding result is reported as “binds”.

These data come from publication PMC10427625, “Structural basis for negative regulation of the Escherichia coli maltose system” (Nature Communications, 2023).
